Measurements as given in IntAct's records for PubMed 21516123.

B1: Peroxiredoxin-1 (Mus musculus), P35700 (parent)
chain: MSSGNAKIGYPAPNFKATAVMPDGQFKDISLSEYKGKYVVFFFYPLDFTFVCPTEIIAFSDRADEFKKLNCQVIGASVDSHFCHLAWINTPKKQGGLGPMNIPLISDPKRTIAQDYGVLKADEGISFRGLFIIDDKGILRQITINDLPVGRSVDEIIRLVQAFQFTDKHGEVCPAGWKPGSDTIKPDVNKSKEYFSKQK
partner: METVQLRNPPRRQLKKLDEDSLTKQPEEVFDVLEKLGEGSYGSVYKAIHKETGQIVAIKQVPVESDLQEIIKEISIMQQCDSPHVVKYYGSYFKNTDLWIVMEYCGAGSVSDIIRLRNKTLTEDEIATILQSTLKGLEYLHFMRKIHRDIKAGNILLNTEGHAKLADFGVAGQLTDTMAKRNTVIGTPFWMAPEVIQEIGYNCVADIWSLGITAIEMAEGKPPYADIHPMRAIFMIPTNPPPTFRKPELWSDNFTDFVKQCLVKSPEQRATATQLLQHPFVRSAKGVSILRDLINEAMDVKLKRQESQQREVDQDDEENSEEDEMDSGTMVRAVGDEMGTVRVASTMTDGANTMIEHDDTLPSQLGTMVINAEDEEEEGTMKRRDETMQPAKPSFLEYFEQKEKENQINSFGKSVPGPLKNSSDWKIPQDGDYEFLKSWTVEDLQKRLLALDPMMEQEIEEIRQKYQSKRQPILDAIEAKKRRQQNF

Variants of: B1
Details: with stk4_human STK4, Q13043

effect of a mutation on the interaction | Variant
disrupting interaction | MSSGNAKIGYPAPNFKATAVMPDGQFKDISLSEYKGKYVVFFFYPLDFTFVSPTEIIAFSDRADEFKKLNCQVIGASVDSHFCHLAWINTPKKQGGLGPMNIPLISDPKRTIAQDYGVLKADEGISFRGLFIIDDKGILRQITINDLPVGRSVDEIIRLVQAFQFTDKHGEVCPAGWKPGSDTIKPDVNKSKEYFSKQK [C52S]
decreasing interaction | MSSGNAKIGYPAPNFKATAVMPDGQFKDISLSEYKGKYVVFFFYPLDFTFVCPTEIIAFSDRADEFKKLNCQVIGASVDSHFSHLAWINTPKKQGGLGPMNIPLISDPKRTIAQDYGVLKADEGISFRGLFIIDDKGILRQITINDLPVGRSVDEIIRLVQAFQFTDKHGEVCPAGWKPGSDTIKPDVNKSKEYFSKQK [C83S]
increasing interaction | MSSGNAKIGYPAPNFKATAVMPDGQFKDISLSEYKGKYVVFFFYPLDFTFVCPTEIIAFSDRADEFKKLNCQVIGASVDSHFCHLAWINTPKKQGGLGPMNIPLISDPKRTIAQDYGVLKADEGISFRGLFIIDDKGILRQITINDLPVGRSVDEIIRLVQAFQFTDKHGEVSPAGWKPGSDTIKPDVNKSKEYFSKQK [C173S]
